In this data set the test system is Nc1ncnc2c1ncn2[C@@H]1O[C@H](COP(=O)(O)OP(=O)(O)OP(=O)(O)O)[C@@H](O)[C@H]1O. The data set is described as follows: purified protein. It counts as biochemical, Homo sapiens.

As a reminder, the Km is the substrate concentration at which the rate is half of its maximum.

Regarding IP6K1 (Homo sapiens), the Km is 353 ± 167 µM.
